Results from publication PMC5033319.

Experiment: recombinant expression in Sf9, not detailed
Details: glycan lost; control: initial domain III preparation, sites intact

EGFR domain III (EGFRD3): N328D and N420D
other: solubility: increases
